Laboratory results as given in the nanobody polyreactivity screen of Harvey et al. (2022).

Experiment: yeast display, Sf9 membrane polyspecificity reagent, FACS + sequencing; frameworks hold sequencing errors
Outline: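 Genes from sorted yeast were amplified by colony PCR, read by MiSeq 2 × 250 sequencing and filtered on CDR length. These cells carried a synthetic nanobody library in Saccharomyces cerevisiae BJ5465 and were sorted by FACS into low and high (top ~1%) gates on anti-HA and streptavidin fluorescence. Polyreactivity is labelled according to the gate of origin.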

| Sequence | polyreactivity (PSR sort gate) |
| --- | --- |
| QVQIVESGAGLVQAGGSLRLSCAASGSIYAPNAMGWYRQAPGKERELVAAISRSGGRTYYADSVKGRFTISRDNAKNTVYLQMNSLKPEDTAVYYCAADYKHQRTYGSWGQGTQVSVSS | high polyreactivity |
| QVQLVESGGGLVQAGGSLRLSCAASGSTFQYNAMGWYRQAPGKERELVAAISLSGGSTYYADSVKGRFTISRDNAKNTVYLQMNSLKPEDTAVYYCATEYYVYDYYYWAWYGYEYWGQGTQVTVSS | high polyreactivity |
| QVQLVESGGGLVQAGGSLRLSCAASGSIFKINTMGWYRQAPRQERELVAAISKRGGSTYYADSVKGRFTISRDNAKITVYLQMNSLKPDDTAVYYCAAREFYKYYYWGQVTQVTVSS | high polyreactivity |
| QVQLVESGGGLVQAGGSLRLSCAASGRIFNQYGMGWYRQAPGKERELVAAIRSGDSTNYADSVKGRFTISRDNAKNTVYLQMNSLKPEDTAVYYCARDFSPGSSDPKASISFDHWGQGTQVTVSS | low polyreactivity |
| QVQLVESGGGLVQAGGSLRLICAASGFIFPDYTMGWYRHAPGKERELVAAINVSGGSTYYADSVKGRFTISRDHAKNTVYLQMNSLKPEDTAVYYCAAVGGRFVRRSTMDYWGQGTQVTVSS | low polyreactivity |
| QVQLVESGGGLVQAGGSLRLRCAASGSTFSTNAMGWYSQAPGKERELVASITRSGGSTYYADSVKGRFTISRDNAKNTFYLQMTSLKPEDTAVYYCNADGYYDYDYGFWGQGTQVTVSS | low polyreactivity |
| QVQLVESGGGLVQAGGSLRLSCAASGSIFKYYAMGWYRQAPGKERELLADISFGGDSTYYADSVKGRFTISRDNAKNTVYLQMNSLIPEDTAVYYCAAAPYFWFVEYDYWGQGTQVTVSS | low polyreactivity |
| QVQLEESGGGLVQAGGSLRLSCAASGLTFTPNAMGWYRPAPGKEWELVAAITNGGSTNYADSVKGCFTISRDNAKNTVYLQMNSLKPEDTAVYYCAAECSYWFRRYGYWGQGTQVTVSS | high polyreactivity |
| QVQLVESGGGLVQAGGSLRLSCAASGSIFLGNAMGWYRQAPGKESELVAAISSITGRTYYADSVKGRFTISRDNAKNTVYLQMNSLKPEDTAVYYCNKVKRSFIVNTDDYWGQGTQVTVSS | high polyreactivity |
| QVQLLESGGGLVQAGGSLRLSCAASGLTICYYAMGWYRQAPGKEREYVAAITSRGGDTYYADSVKGRFTISRDNAKNTVYLEMNSLKPEDTAVYYCAVRPRYYGTYRYYYWGQGTQVTVSS | high polyreactivity |
| QVQLVESGGGLVQAGGSLRLSCAASRIIFDDNAMGWYRQAPGKEMELVAAISRRGGSTYYADSVKGRFTISRDNAKNTVYLQMNSLKPEDTAVYYCAATTRTSSLYNYWGQGTQVTVSS | high polyreactivity |
| QVQLVESGGGLDQAGGSLRLSWAASGITFGWYAKGWYRLAPGKERELVASISSSGSTNYADSVKGRLTISRDNAKNTVYLQMNSQKTEDTAVYYCNKDYLLRHFYIYVIEGDYWGQGTKVTVSS | low polyreactivity |
| QVQLVESGGGLVQAGGSLRLSCAASGRTFYSYAMGWYRQAPGKEREFVAAINWSGTSTYADSVKGRFTISRDNAKNTVYLQMNSLKPEDTAVSYCAKTYRTLVRYWGQPFGYWGQGTQVTVSS | high polyreactivity |
| KVQLVESGGGLDQAGGSLRLSCAASGIIFAYNVMGRYRQAPGKERELVAAIRWGGGSTYADSVKGRFSISRDNAKNTVYLQMTRLKPEDTAVYYCNVERWWWSRTYCVKYDYWGQGTQVNVSS | high polyreactivity |
| QVQLVESGGGLVQAGGSLRLSCAASGRTFGYYAMGWYRPAPGKERELVAAITRTGGSTHYADSVKGRFTISRDNAKNTVYLQMNSLKPEDTAVYYCAVDYHQAWPSADYWFEYDYWGQGTQVTVSS | low polyreactivity |
| QVQLVESGGGLVQAGGSLRLSCEDSGFIFRVYAMGWYLQAPGKERELVAAINSGGSTNYADSVKGRFTISRDNAKNTVYLQMNSLKPEDTAVYYCAARVKTSYRYLRTYNYCGQGTQVTVSS | high polyreactivity |
| QVHLVESGVGLVQAGGSLRLSCAASGFIFYYNAMGWYRQAPGKERELVAAISRTGGSTYYADSVKGRFTISRDNAKNTVYLQMNSLKPEDTAVYYCAAVGSPNRRPSRWEGSWGQGTQVTVSS | high polyreactivity |
| QVLLVETGGGLVQAGGSLRLSCAASGLIFYDNMGWYRQAPGKERELVAAISSSGGSTSYADSVKGRFTISRDNAKNTVYLQMNSLKPEDTAVYYCAADSYPAYLGFVGFDYWGQGTQVTVSS | low polyreactivity |
| QVQLVESGGGLVQAGGSLRLTCAASGRIFYRYAMGWYRQAPWKERELVAAIRYSGGRTYYADSVKGRFTISRDNAKNTVYLQMNSLQPEDTAVYYCAADGQWYYAPFRGGDYENDYWGQGTQVTVPS | low polyreactivity |
| QVQLVESGGGLVQAGGRLLLSCAASGGTFRVYAMGWYIQAPGKERELVASISWSSGITYYADSVKGRFTISRDNAKNTVYLQMNSLKPEDTAFYYCAAEGHVTYGAPGRLYRMGYWGQGTQVTVSS | low polyreactivity |
| QVQLVESGGCLVQAGGSLRLSCAATGSTLGSYAMGWYRQAPGKERELVAAITFLGGSTYYADSVKGRFTSSRDNAKNTVYLQMNSLKPEDSAVYYCAARFLRVLFNLVFIYDYWGQGSQVTVSS | high polyreactivity |
| QVQLVESGGGLVQAGGSLRLSCAASGFIFRWYTMGWYRQAPGKERELVAAISSSGGTTYYADSVKGRFTISRDNAKNTVYLQMNSLKPEDTAVYYCTTRYPLGGTYTRYPLKGDYWGQGTQVTVSS | high polyreactivity |

| Sequence | polyreactivity (PSR sort gate) |
| --- | --- |
| QVQLVESGGGLVQAGGSLRLSCAASGLTFVRYAMGWYRQAPGKERELVAAITTRGGSTYYADSVKGRFTISRDNAKNTVYLQMNSLKPEDTAVFYCNADRVTSSSVRYDYWGQGTQVTVSS | high polyreactivity |
| QVQLVESGGGLVQAGGSLRLSCAASGYTFYVYTMGWYRPARGKERELVAAISGSGTSTYYADSVKRRFTISRDNAKNTVYLQMNSLKPEDTAVYYCNAQDSLTTVPDPEYDYWGQGTQVTVSS | low polyreactivity |
| QVQLVESGGGLVQAGGSLRLSCAASGRIFGSYAMGWYRQAPGKERELVAAITRSGGSTYYADSVKGRFTISRDNAKNTVYLQMNSLKPEDTAVYYCAARYGIRYAYFGRFDYWGQGTQVTVSS | high polyreactivity |
| QVQLVESAAGLVKAGASLRLSCAPSGSTFYLNAMGGSRQEPGQESEFVAAIRGGGTSTRYADSVKGRFTISRDNAKNSVYLQMNSLKPEDSAVYYCAAGPGGHRYKVGYWGLGTQVTVSS | high polyreactivity |
| QVQLVESGGGLVQAGGSLRLSCAASGRIFYSYAMGWYRQAPGKERELVAAITESGGSTNYADSVKGRFTISRDNAKNTVYLQMNSLKPEDTAVYYCNARYKLTFNLYNYWGQGTQVTVSS | low polyreactivity |
| QVQLVESGGGLVQAGGSLRLSCAASGIIFTYAMGWYRQAPGKERELVAAIDWRGGRTYYADTVKGRFTISRDNAKNTVYLEMNSLKPEDTAVYYCAARLPGGTYYWGQGTQVTVSS | high polyreactivity |
| QVQLVESGGGLVQAGGSLRLSCAASGRTFGPYAMGWSRQAPGKEREFVAAISYSGGSTYYADSVKGRFTISRDNAKNTVYFQITSLKPEDTAVYYCAVDIDSNSGTRDYWGQGTQVTVSS | low polyreactivity |
| QVQLVESGGGLVQAGGSLRLSCAASGSIFVLNAMGWYRQAPGKERELVAVISNIGGRTYYADSVKGRFTISRDNAKNTVYLQMNSLKPEDTAVYYCIFRSPSYEYDYWGQGTQVTVSS | low polyreactivity |
| QVQLVESGGGIVQAGGSLRLSCAASGLSRGVNVMGLYRQAPGKERELVAAISGAGRTYYADSVKGRFTISRDNAKNTVFLQMNSLKPEDTAVYYCASVRRRLSLTYDYWGQGTQVTVSS | high polyreactivity |
| QVQLVESGGGLVQAGGSLRLSCAASGGTFKANAMGWYRQAPGKERELVAAIRQTGGSTYYADSVKGRFTISRDNAKNTVYLQMNSLKPEDTAVYYCAAQSHRYCIYDYWGQGTQVTVSS | high polyreactivity |
| QVQLVESGGGLVQAGGSLRLSCAASGFTIRWYTMGWYRQAPGKERELVAAISRGGSTNYADSVKGRFTISRDNAKNTVYLQMNSLKPEDTAVYYCNAVRGGRYGLDYWGQGTQVTVSS | high polyreactivity |
| QVQLVESGGGLVQAGGSLRLSCAASGRIFYYYTMGWYRQAPGKERELVAGISRSGDRTYYADSVKGRFTISRDNGKNTVYLQMNSLKPEDTAVYYFAALYGYVHRKAFYYWGQGTQVTVSS | high polyreactivity |
| QVQLVESGGGLVQAGGSLRLSCAASGGTIFAYAMGWYIQAPRERELVPAISWSGDSTYYADSLKGRFTISRDNAKNTVYLQMNSLKPEETAVYYCAADYGFEFYYWGQGTQVTVAS | high polyreactivity |
| QVQRVESAAGLVQAGGSLRLSCAASGSIFWFNSMGWSRPEPGKERELVATIRYSGCSTYYADSVKGRFTISRDNAKKTVYLLMNSLKPDDTAVYYSAAVYRYSRSGYEYWGQGTQVTVSS | high polyreactivity |
| QVQLVESGGGLVQAGGSLRLSCAASGRIFKGYSMGGYRQAPGTETELVASIRTGGTTNYADSVKGRFTISRDNAKNTVYLQMNSLKPEDTAVYYCNRGYYSYYGRYYYWGQGTQVTVSS | high polyreactivity |
| QVQLVESGGGLVQAGGSLRLSCAASGSIFYTNAMGWYRQAPGKERELVAAITRTGSTNYADSVKGRFTISRDNAKNTVYLQMNSLKPEDTAVYYCNARRYYRYGYWGQGTQVTVSS | high polyreactivity |
| QVQLVESGGGLVQAGGSLRLSCAASGNIFRRYAMGWYREAPGKERELVAAISRGGTRTYYADSVKGRFTISRDNAKNTVYLQMNSLKPEDTAVYYCNAEVNTNYRIADYDYWGQGTQVTVSS | high polyreactivity |
| QVQLVESGGGLVQAGGSLRLSCAASGITFIRYAMGWYRQAPGKERELVAVITRSGGRTYYADSVKGRFTISRDNAKNTVYLQMNILKPEDTAVYYCAARAYGYDEYEYWGQGTQVTVSS | high polyreactivity |
| QVQLVESGGGLVQAGGSLRLSCAASGFTLTAYAMGWYRQPPGKERELVAAITYTGGSTYYADSVKGRFTISRDNAKNTVYLQMNSLKPEDTAGYYCAAEFLSVPYDYGYWGQGTQVTVSS | high polyreactivity |
| QVQLVESGGGLVQAGGSLRLSCAASGFTFGRYARGWYRQAPGKERELVAAISRGGSSTYYADSVKGRFTISRDNAKNTVYLQMNSLKPEDTAVYYCNKVIIWARFDYWGQGTQVTVSS | high polyreactivity |
| QVHLVESGGRLVQAGGSLRLSCAASGRTVVDNAMGWYRQAPGKESQLVAAISSGGTTNFADSVKGRFTISRDIAKNTVYLQMNSLKPEDTAVFYCNTVATYLRSGYGNWGQGTQVTVSS | low polyreactivity |
